In patent publication US20050223436A1, “EPSP synthase highly tolerant to glyphosate” (priority 2003, published 2005):

Legend:
[1] = system: tobacco; assay: Glyphosate tolerance of transgenic tobacco; format: in vivo; conditions: transgenic plants, greenhouse assays
Protocol: (4) Transformation of tobacco was carried out according to the leaf disc transformation protocol, using sterilized tissue of a healthy leaf of about 2 weeks old. The main vein was removed and the leaf was cut into small pieces of 2 cm^2.
(8) After development of the roots, plants were taken out. The attached solid culture media was washed off with sterile water. The plants were initially kept in a high humidity environment such as a plastic container with a glass cover for a few days. After the plants had grown stronger, the glass covers were removed, and the plants were transferred to solid culture media containing 10 mM glyphosate for screening of glyphosate tolerant plants.
(10) Glyphosate tolerance assays in greenhouse also confirmed that the transgenic plants could grow well in media containing 15 mM glyphosate.

[2] = system: E. coli JM109; assay: Glyphosate tolerance of E. coli JM109 transformants on MOPS media plates; format: cell-based; conditions: bacteria transformed with DNA encoding the enzyme (summary of Example 1)
From the text: A SuperCos1 Cosmid Vector kit (Stratagene Co., Ltd) was used to construct a community genomic DNA cosmid library. The community genomic DNA was digested with restriction endonuclease Sau3AI at 0.006 unit/microgram purified DNA. DNA fragments of about 40 kb were collected using the freeze-thaw method, and then ligated with SuperCos1/BamH1 vector. A cosmid genomic DNA library was constructed according to the manual of Stratagene Co., Ltd. For screening of glyphosate tolerant clones, JM109 E. coli was used as the acceptor bacterium for the genomic library construct, as glyphosate is only effective on an inhibitory medium such as M9 and MOPS. The ligated DNA was packaged into lambda phage particles (Stratagene, Gigapack Gold) according to the manufacturer's protocol. E. coli strain JM109 was infected with the packaged product. The transformants were selected on tetracycline LB media. Positive clones were then plated on LB media containing tetracycline and tetracycline+kanamycin, respectively. Clones growing on both media were considered as negative recombinants resulting from vector ligated with vector DNA. The number of positive transformants was calculated as the total number of colonies minus background false negative colonies. This number was used to determine the titer of the genomic library, which was 4×10^6 pfu/ml, meeting the requirement for library construction (>10^6 pfu/ml). […]

B1: EPSP synthase: novel 444 amino acid EPSP synthase highly tolerant to glyphosate, encoded by SEQ ID NO:1/3 (protein, listed as Unknown bacterium)
chain: MACLPDDSGPHVGHSTPPRLDQEPCTLSSQKTVTVTPPNFPLTGKVAPPGSKSITNRALLLAALAKGTSRLSGALKSDDTRHMSVALRQMGVTIDEPDDTTFVVTSQGSLQLPAQPLFLGNAGTAMRFLTAAVATVQGTVVLDGDEYMQKRPIGPLLATLGQNGIQVDSPTGCPPVTVHGMGKVQAKRFEIDGGLSSQYVSALLMLAACGEAPIEVALTGKDIGARGYVDLTLDCMRAFGAQVDAVDDTTWRVAPTGYTAHDYLIEPDASAATYLWAAEVLTGGRIDIGVAAQDFTQPDAKAQAVIAQFPNMQATVVGSQMQDAIPTLAVLAAFNNTPVRFTELANLRVKECDRVQALHDGLNEIRPGLATIEGDDLLVASDPALAGTACTALIDTHADHRIAMCFALAGLKVSGIRIQDPDCVAKTYPDYWKAWPSLGVHLND
glyphosate concentration in which transgenic tobacco grew [1]: 15 mM | glyphosate concentration of media in which transformed bacteria grew [2]: 10 to 150 mM
